The data set concerns the target SARS-CoV-2 spike S1 subunit (SARS-CoV-2, UniProt P0DTC2 14-685). Description: bead-based fluorescence.

B1: SpS1-C1 (ssDNA)
DNA: GAACATTGGCGTCCGTGAGTGAGACCATAGTCCAGCGAACTAAACCTACCCTAAAGGGCAAGGAAGACGGGCACTTCCTCAAACGCCCAA
Consider B1, for which the binding result is reported as “binds”.

B2: SpS1-C4 (ssDNA)
DNA: GAACATTGGCGTCCGTGAGCAGCTCGTGGTTGTTTGCTTGTATACTTTTGTGGTTTATCTTGTTTCTGATCACTTCCTCAAACGCCCAA
For the molecule B2, the binding result is on record as “binds”.

For the origin of these results see paper PMC9993738.
